# Assay results published in patent publication US20180072815A1.
# Molecular target: commercially available anti-Stat3 antibody (Abcam)
# Assay: ELISA, antibody coated directly at 1 µg/mL
substance,measurement,value
his-probe (H-3) biotin labeled antibody,OD450 Values,0.018 OD450
